In US20240368309A1 (Hoffmann-La Roche, published 2024) one finds koff data, which are given here for 15 molecules.

Residue numbers refer to the chain shown, from its start.

B1: Monovalent EpCAM (GG01_VH x GG01_VL) (antibody, IgG1, V domains shown)
VH: QVQLVQSGSELKKPGASVKVSCKASGYTFTNYGMNWVRQAPGQGLEWMGWINTYTGESTYAQGFTGRFVFSLDTSVSTAYLQISSLKAEDTAVYFCARFAIKGDYWGQGTLVTVSS
VL: DIVMTQSPLSLPVTPGEPASISCRSSQSLLHSNGITYLYWYLQKPGQSPQLLIYQMSNRASGVPDRFSGSGSGTDFTLKISRVEAEDVGVYYCAQNLEIPRTFGQGTKLEIK
notes: one-armed hu IgG1 PG-LALA, VH/VL-crossed Fab on Fc hole plus empty Fc knob; from supernatant
B2: Monovalent EpCAM (GG01_VH x GG03_VL) (antibody, IgG1, V domains shown)
VH: B1 VH
VL: EIVLTQSPGTLSLSPGERATLSCRASQSLLHSNGITYLYWYQQKPGQAPRLLIYQMSNRATGIPDRFSGSGSGTDFTLTISRLEPEDFAVYYCAQNLEIPRTFGQGTKLEIK
notes: as for B1
B3: Monovalent EpCAM (GG01_VH x GG06_VL) (antibody, IgG1, V domains shown)
VH: B1 VH
VL: DIQMTQSPSSLSASVGDRVTITCRASQSILHSQGITYLYWYQQKPGKAPKLLIYQMSNLQSGVPSRFSGSGSGTDFTLTISSLQPEDFATYYCAQNLEIPRTFGQGTKLEIK
notes: as for B1
B4: Monovalent EpCAM (GG01_VH x GG02_VL) (antibody, IgG1, V domains shown)
VH: B1 VH
VL: DIVMTQSPDSLAVSLGERATINCKSSQSLLHSNGITYLYWYQQKPGQPPKLLIYQASTRESGVPDRFSGSGSGTDFTLTISSLQAEDVAVYYCAQNLEIPRTFGQGTKLEIK
notes: as for B1
B5: Monovalent EpCAM (GG01_VH x GG04_VL) (antibody, IgG1, V domains shown)
VH: B1 VH
VL: DIQMTQSPSSLSASVGDRVTITCRASQSISSYLYWYQQKPGKAPKLLIYQASSLQSGVPSRFSGSGSGTDFTLTISSLQPEDFATYYCAQNLEIPRTFGQGTKLEIK
notes: as for B1
B6: Monovalent EpCAM (GG01_VH x GG05_VL) (antibody, IgG1, V domains shown)
VH: B1 VH
VL: DIVMTQSPLSLPVTPGEPASISCRSSQGINNYLYWYLQKPGQSPQLLIYQMSNRASGVPDRFSGSGSGTDFTLKISRVEAEDVGVYYCAQNLEIPRTFGQGTKLEIK
notes: as for B1
B7: Monovalent EpCAM (GG06_VH x GG05_VL) (antibody, IgG1, V domains shown)
VH: B1 VH with E57Q
VL: B6 VL
notes: as for B1
B8: Monovalent EpCAM (GG06_VH x GG03_VL) (antibody, IgG1, V domains shown)
VH: B1 VH with E57Q
VL: B2 VL
notes: as for B1
B9: Monovalent EpCAM (GG06_VH x GG04_VL) (antibody, IgG1, V domains shown)
VH: B1 VH with E57Q
VL: B5 VL
notes: as for B1
B10: Monovalent EpCAM (GG07_VH x GG02_VL) (antibody, IgG1, V domains shown)
VH: B1 VH with I101R, K102S
VL: B4 VL
notes: as for B1
B11: Monovalent EpCAM (GG07_VH x GG05_VL) (antibody, IgG1, V domains shown)
VH: B1 VH with I101R, K102S
VL: B6 VL
notes: as for B1
B12: Monovalent EpCAM (GG06_VH x GG02_VL) (antibody, IgG1, V domains shown)
VH: B1 VH with E57Q
VL: B4 VL
notes: as for B1
B13: Monovalent EpCAM (GG07_VH x GG01_VL) (antibody, IgG1, V domains shown)
VH: B1 VH with I101R, K102S
VL: B1 VL
notes: as for B1
B14: Monovalent EpCAM (GG06_VH x GG01_VL) (antibody, IgG1, V domains shown)
VH: B1 VH with E57Q
VL: B1 VL
notes: as for B1
B15: Monovalent EpCAM (GG07_VH x GG03_VL) (antibody, IgG1, V domains shown)
VH: B1 VH with I101R, K102S
VL: B2 VL
notes: as for B1

The target in this assay is T1, biotinylated monovalent EpCAM-Fc (human EpCAM ECD-Fc knob avi-his paired with Fc hole) (human, UniProt P01857 104-328 = IgG part, biotin on the avi tag (BirA co-expression)).
T1 construct: also called monovalent EpCAM-Fc construct; huEPCAM-Fc-knob (avi-His) + Fc hole (wt)
Briefly: SPR ProteOn XPR36 off-rate, biotinylated monovalent EpCAM-Fc on NLC chip, 50 nM supernatant.
What is called koff is a measure of how fast the partners let go of each other. Consider B1, for which the koff worked out at 0.00438 s⁻¹.

B2 showed a koff of 0.00292 s⁻¹.

The molecule B3 displayed a koff of 0.00412 s⁻¹.

As for B4, the koff was 0.00494 s⁻¹.

With B5, the koff was 0.00272 s⁻¹.

Consider B6, for which the koff was 0.062 s⁻¹.

On to B7, for which the koff came out at 0.00665 s⁻¹.

In turn, B8 came in with a dissociation rate constant (koff) of 0.00286 s⁻¹.

In the case of B9, the koff is 0.00434 s⁻¹.

Take B10: the koff is 0.00528 s⁻¹.

The molecule B11 came in with a koff of 0.00491 s⁻¹.

The molecule B12 had a koff of 0.00382 s⁻¹.

In turn, B13 returned a koff of 0.00411 s⁻¹.

In turn, B14 displayed a koff of 0.00343 s⁻¹.

Turning to B15, the koff was 0.00285 s⁻¹.
